Assay results reported in patent US20260102527A1 (VRIJE UNIVERSITEIT BRUSSEL, published 2026).

What was measured:
[1] = molecular target: T1, recombinant hCD8αβ protein (R&D systems) (human, UniProt P01732 22-182; P10966 22-170); experiment: equilibrium binding ELISA, coated hCD8αβ protein
T1 construct: Bought protein; they are tied to this reagent by name only; also called human CD8 protein; human CD8β protein
Method: (§1) Wells of a 96 well MicroWell MaxiSorp flat bottom plate (Thermo Fisher Scientific) were coated with 0.2 μg of recombinant hCD8αβ protein, 0.2 μg of cynomolgus CD8β-Fc protein (Sino Biologicals) or PBS overnight at 4° C. The next day, wells were washed 3 times with PBS-T (PBS+0.05% Tween20 (Merck-Millipore, Burlington, MA, USA). Next, wells were blocked with blocking buffer (2% Skimmed milk (Regilait) in PBS) for 1 h at room temperature (RT). Different concentrations of single domain antibodies, diluted in blocking buffer, were added to the wells and incubated for 1 h at RT. Single domain antibody binding was detected using a mouse-anti-HA antibody (1:2000, clone 16B12, Biolegend) and alkaline-phosphatase conjugated goat-anti-mouse antibody (1:200, clone A90-116AP, Bethyl Laboratories, Montgomery, TX, USA). Wells were washed 5 times with PBS-T between all incubation steps. Binding was determined using p-nitrophenyl phosphate (2 mg/ml resuspended in AP blot buffer (12.12 g/L Trizma base, 10.17 g MgCl2·6H20/L, 5.84 g/L NaCl); Thermo Fisher Scientific). Absorbance at 405 nm was measured via a VersaMax ELISA Microplate Reader, using the SoftMax® Pro software (Molecular Devices, San Jose, CA, USA).

[2] = molecular target: T2, human CD8α on CD3- CD56+ NK cells (express hCD8α but not hCD8β) (human, UniProt P01732 22-235); experiment: flow cytometry on primary NK cells, anti-HA detection
T2 construct: whole, on cells; also called cell-exposed CD8a

[3] = molecular target: T3, human CD8 (CD8αβ) on cells: SUP-T1 T cell lymphoma cells and primary human CD8+ T cells (human, UniProt P01732 22-235; P10966 22-210); experiment: flow cytometry on SUP-T1 cells, anti-HA detection
T3 construct: whole, on cells; SUP-T1 endogenously expresses human CD8; primary T cells came from healthy donors; The sdAbs are directed to the CD8β chain; also called SUP-T1 cells; primary CD8+ T cells
Method: Serial dilutions of anti-hCD8β single domain antibodies were incubated with 500.000 SUP-T1 cells in FACS buffer (HBSS (Gibco, Thermo Fisher Scientific) supplemented with 1% FBS and 2 mM EDTA (Duchefa Biochemie, Haarlem, The Netherlands)) for 1 h at 4° C. Cells were washed once with FACS buffer. Next, single domain antibody binding was detected by incubation of the cells with an Alexa Fluor®-488 tagged anti-HA antibody (1:1000 in FACS buffer, clone 16B12, Biolegend, San Diego, CA, USA) for 30 min at 4° C. Again, cells were washed once with FACS buffer. Single domain antibody binding was determined using the FACS CANTO II analyser (BD Biosciences, Franklin Lakes, NJ, USA). The mean fluorescence intensity of single domain antibody binding was determined using FlowJo version 10.

[4] = molecular target: T1, recombinant hCD8αβ protein (R&D systems); experiment: SPR, Biacore T200, sdAb injected 250 to 1 nM, 25 °C, 1:1 fit
Method: The affinity of purified anti-hCD8β single domain antibodies to recombinant hCD8αβ protein (R&D systems, Minneapolis, MN, USA) was determined using the BIACORE-T200 device (Cytiva, Freiburg, Germany). Surface plasmon resonance measurements were performed at 25° C. with HEPES buffered saline (HBS, 20 mM of HEPES pH 7.4, 150 mM of NaCl, 3.4 mM of EDTA 0.05% Tween-20) running buffer. The single domain antibodies were injected consecutively in 2-fold serial dilutions, from 250 to 1 nM. The association step was 100 s, the dissociation step was 200 s, and the two-step regeneration of 35 s at 30 μL·min-1, using 100 mM glycine at pH 3.0, was performed. Local curve fitting analysis was performed using the BIACORE evaluation software (Cytiva) by fitting the obtained sensorgrams to theoretical curves, assuming 1-1 binding geometries. For the determination of the equilibrium dissociation constant, the ratio of the association and dissociation rate constants was determined.

[5] = molecular target: T4, cynomolgus CD8β-Fc protein (Sino Biologicals) (cynomolgus); experiment: equilibrium binding ELISA, coated cynomolgus CD8β-Fc
T4 construct: Bought protein; also called cynomolgus CD8β protein
Method: as §1

T3 sequence (P01732 22-235, chain 1 of 2): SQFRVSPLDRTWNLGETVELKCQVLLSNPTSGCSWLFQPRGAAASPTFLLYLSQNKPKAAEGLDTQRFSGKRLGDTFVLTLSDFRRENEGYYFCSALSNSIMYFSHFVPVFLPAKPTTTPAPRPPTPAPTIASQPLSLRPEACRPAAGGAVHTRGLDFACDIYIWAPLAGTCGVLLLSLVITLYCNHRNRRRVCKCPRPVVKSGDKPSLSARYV
T3 sequence (P10966 22-210, chain 2 of 2): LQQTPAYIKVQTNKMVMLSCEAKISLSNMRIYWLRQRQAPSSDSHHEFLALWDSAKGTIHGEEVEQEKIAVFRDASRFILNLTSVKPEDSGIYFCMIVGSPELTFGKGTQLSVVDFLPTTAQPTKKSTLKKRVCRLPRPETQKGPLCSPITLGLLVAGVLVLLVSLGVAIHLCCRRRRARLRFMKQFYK
T1 sequence (P01732 22-182 limits assumed, chain 1 of 2): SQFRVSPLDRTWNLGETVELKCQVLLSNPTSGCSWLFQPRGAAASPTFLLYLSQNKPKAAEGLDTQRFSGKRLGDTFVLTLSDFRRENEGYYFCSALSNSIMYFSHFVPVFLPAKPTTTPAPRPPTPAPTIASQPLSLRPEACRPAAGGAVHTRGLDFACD
T1 sequence (P10966 22-170 limits assumed, chain 2 of 2): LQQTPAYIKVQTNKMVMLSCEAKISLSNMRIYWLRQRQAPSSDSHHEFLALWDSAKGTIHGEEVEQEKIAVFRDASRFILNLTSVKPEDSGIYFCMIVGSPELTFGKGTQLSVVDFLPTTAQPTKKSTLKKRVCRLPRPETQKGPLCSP
T2 sequence (P01732 22-235): as the sequence (P01732 22-235, chain 1 of 2) above

B1: anti-human CD8β single domain antibody 22719 (VHH)
VHH: DVQLVESGGGLVQAGGSLRLSCRASGHTFSDTAVGWFRRVPGKEREFVATIAGSGSIRYSESVKGRFTISGDNAKNMVYLQMNRLKPEDTGVYYCAAAVGISYDYWGQGTQVTVSS
notes: Llama-derived sdAb; detected through its C-terminal HA-tag in flow cytometry and ELISA; not shown: C-terminal HA-tag and His-tag (pMECS vector)
- Kd [1]: 3.6 nM
- binding result [2]: no binding (tested: 100 nM)
- Kd [3]: 16 nM
- Kd [4]: 1 nM
- Kd [5]: 4.4 nM

B2: anti-human CD8β single domain antibody 22772 (VHH)
VHH: DVQLVESGGGLVQPGGSLRLSCRASGHTFSDLSVGWFRRAPGKAREFVATTAWNGSIRYAESVKGRFTISRDNAANMMYLQMNSLKPEDTAIYYCAAAVGISYDYWGQGTQVTVSS
notes: detected through its C-terminal HA-tag; not shown: C-terminal HA-tag and His-tag (pMECS vector)
- Kd [1]: 3.5 nM
- Kd [3]: 16.8 nM
- Kd [4]: 5 nM
- Kd [5]: 1.6 nM

B3: anti-human CD8β single domain antibody 22728 (VHH)
VHH: DVQLVESGGGLVQAGDSLRLSCVASGRTVSGGVMGWFRQAPGKGREFVASIKWESGRTYYVDSLKDGFTISRDSPKNTVYLQMTNLKPEDTAVYYCAAGIRVWQLSTLESTYDDWGQGTQVTVSS
notes: as for B1
- Kd [1]: 2.9 nM
- binding result [2]: no binding (tested: 100 nM)
- Kd [3]: 2 nM
- Kd [4]: 2.6 nM
- Kd [5]: 1.7 nM
